Where no end group is shown, it is not given here.
Tests used:
[1] = molecular target: T1, PD-L1 (SPR target) (UniProt Q9NZQ7 19-238, limits assumed); experiment: SPR; drawn table under the sensorgrams, column KD
T1 construct: also called PD-L1/CD274

[2] = molecular target: T1, PD-L1 (SPR target); experiment: SPR; drawn table under the sensorgrams, column Ka
[3] = molecular target: T1, PD-L1 (SPR target); experiment: SPR; drawn table under the sensorgrams, column Kd
[4] = molecular target: T1, PD-L1 (SPR target); experiment: SPR

T1 sequence (Q9NZQ7 19-238 limits assumed): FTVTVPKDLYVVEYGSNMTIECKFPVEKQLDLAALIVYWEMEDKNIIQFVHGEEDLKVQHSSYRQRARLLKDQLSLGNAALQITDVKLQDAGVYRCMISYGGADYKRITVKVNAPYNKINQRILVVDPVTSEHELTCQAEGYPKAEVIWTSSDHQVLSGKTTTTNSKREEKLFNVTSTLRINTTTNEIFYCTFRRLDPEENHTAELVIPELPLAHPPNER

Kd [1] [nM] | kon [2] [M⁻¹ s⁻¹] | koff [3] [s⁻¹] | strength of KD relative to free peptide (pPD1) [4] [fold] | Binder
2.75 | 252000 | 0.000693 | ~100000 | HVVWHRESPSGQTDTLAA (other, not fully specified (C-terminus); also: conjugated to G7 PAMAM dendrimer, attachment site and number per dendrimer not given here, Multivalent conjugate; Only the peptide part is a polypeptide; also called dendrimer-pPD-1; dendrimer-peptide conjugates) [dendrimer-peptide conjugate G7-pPD1 (pPD-1 peptides conjugated to PAMAM dendrimer)]
2.09 | 583000 | 0.00122 | – | aPD-L1 (full anti-PD-L1 antibody) (antibody, V domains shown) VH: EVQLLESGGGLVQPGGSLSLSCAASGFSFSSGYDMCWVRQAPGKGLEWIACIAAGSAGITYDANWAKGRFTISRDNSKNTLYLQMNSLRAEDTAVYYCARSAFSFDYAMDLWGQGTLVTVSS VL: DIQMTQSPSTLSASVGDRVTITCQASQSISSHLNWYQQKPGKAPKLLIYKASTLASGVPSRFSGSGSGTEFTLTISSLQPDDFATYYCQQGYSWGNVDNVFGGGTKVTVL
119000 | – | 0.127 | – | HVVWHRESPSGQTDTLAA (not fully specified (C-terminus), also called free pPD-1) [PD-L1-binding peptide (pPD-1), free peptide]

— patent US20230000771A1 (WISCONSIN ALUMNI RESEARCH FOUNDATION, published 2023)
